According to US20120100159A1 (Genentech, published 2012):

T1: recombinant gD:human TAT226 fusion protein expressed on HCT116#9-4 cells (herpes simplex virus type 1; human, UniProt Q8N2G4 23-141)
T1 sequence: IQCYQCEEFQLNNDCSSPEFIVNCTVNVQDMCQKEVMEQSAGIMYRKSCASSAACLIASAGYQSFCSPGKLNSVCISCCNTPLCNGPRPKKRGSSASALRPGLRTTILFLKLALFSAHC

T2: human TAT226 expressed on the surface of OVCAR3 cells (human, UniProt Q8N2G4 21-117)
T2 sequence: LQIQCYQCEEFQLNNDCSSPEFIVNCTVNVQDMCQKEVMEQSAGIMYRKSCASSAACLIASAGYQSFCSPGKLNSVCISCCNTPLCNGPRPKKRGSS

T3: recombinant TAT226-His fusion protein (human, UniProt Q8N2G4 21-115)
T3 construct: also called recombinant antigen; not shown: C-terminal polyhistidine tag
T3 sequence: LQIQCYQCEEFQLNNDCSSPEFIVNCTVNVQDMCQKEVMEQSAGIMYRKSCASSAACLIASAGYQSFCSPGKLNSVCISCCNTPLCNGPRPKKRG


Experiments:
[1] = molecular target: T1, recombinant gD:human TAT226 fusion …; assay: cell-based or functional assay
[2] = molecular target: T2, human TAT226 expressed on the surface …; assay: cell-based or functional assay
[3] = molecular target: T2, human TAT226 expressed on the surface …; assay: competition of iodinated antibody with unlabeled antibody on OVCAR3 cells, Scatchard analysis
Description: The binding affinity of YWO.49.H2 and YWO.49.H6 for TAT226 expressed on the surface of OVCAR3 cells was examined using a competition assay. Briefly, labeled (iodinated) YWO.49.H2 or YWO.49.H6 was allowed to bind to OVCAR3 cells in the presence of unlabeled antibody. Binding affinity of the antibodies was determined in accordance with the Scatchard analysis methodology initially described in Munson et al., Anal. Biochem. 107:220 (1980).

[4] = molecular target: T3, recombinant TAT226-His fusion protein; assay: SPR, BIACORE 3000, IgG immobilised on CM5 chip, TAT226-His injected (0.7-500 nM), 25 C
Description: The binding affinity of YWO.49, YWO.49.B7, YWO.49.C9, YWO.49.H2, and YWO.49.H6 for recombinant antigen was determined by surface plasmon resonance measurement using a BIACORE® 3000 system (Biacore, Inc., Piscataway, N.J.). Briefly, carboxymethylated dextran biosensor chips (CM5, Biacore Inc.) were activated with N-ethyl-N′-(3-dimethylaminopropyl)-carbodiimide hydrochloride (EDC) and N-hydroxysuccinimide (NHS) according to the supplier's instructions. Anti-TAT226 antibody was diluted to 5 ug/ml with 10 mM sodium acetate, pH 4.8, before injection at a flow rate of 5 μl/minute to achieve approximately 500 response units (RU) of coupled antibody. Next, 1M ethanolamine was injected to block unreacted groups. For kinetics measurements, two-fold serial dilutions of TAT226-His (0.7 nM to 500 nM) were injected in PBS with 0.05% Tween 20 at 25° C. at a flow rate of 25 μl/min Association rates (kₒₙ) and dissociation rates (koff) were calculated using a simple one-to-one Langmuir binding model (BIAevaluation Software version 3.2). The equilibrium dissociation constant (Kd) was calculated as the ratio koff/kₒₙ.

| Binder | IC50, in vitro cell killing assay on HCT116#9-4 transfectants (CellTiter-Glo, 3 days) [1] [pM] | IC50, OVCAR3 in vitro cell killing assay (CellTiter-Glo, 5 days) [2] [pM] | Kd [3] [pM] | Kd [4] [pM] |
| --- | --- | --- | --- | --- |
| YWO.49.H2-MC-vc-PAB-MMAF (antibody, V domains shown, MC-vc-PAB-MMAF conjugated to cysteine residues of the partially reduced antibody; average drug load 4.7 per antibody) VH: EVQLVESGGGLVQPGGSLRLSCAASGFTITNYGIHWVRQAPGKGLEWVGRIYPDSGATYYADSVKGRFTISADTSKNTAYLQMNSLRAEDTAVYYCARKLWVSLAPMDYWGQGTLVTVSS VL: DIQMTQSPSSLSASVGDRVTITCRASQDVSTAVAWYQQKPGKAPKLLIYSASFLYSGVPSRFSGSGSGTDFTLTISSLQPEDFATYYCQQSYGTPFIFGQGTKVEIKR | ~50 | ~5 | – | – |
| YWO.49.H6-MC-vc-PAB-MMAF (antibody, V domains shown, MC-vc-PAB-MMAF conjugated to cysteine residues of the partially reduced antibody; average drug load 4.4 per antibody) VH: EVQLVESGGGLVQPGGSLRLSCAASGFTITNYGIHWVRQAPGKGLEWVGRIYPDSGATYYADSVKGRFTISADTSKNTAYLQMNSLRAEDTAVYYCARKLWISIAGMDYWGQGTLVTVSS VL: DIQMTQSPSSLSASVGDRVTITCRASQDVSTAVAWYQQKPGKAPKLLIYSASFLYSGVPSRFSGSGSGTDFTLTISSLQPEDFATYYCQHSYATPFTFGQGTKVEIKR | ~50 | ~5 | – | – |
| YWO.49.H2-MC-vc-PAB-MMAE (antibody, V domains shown, MC-vc-PAB-MMAE conjugated to cysteine residues of the partially reduced antibody; average drug load 3.8 per antibody) VH: EVQLVESGGGLVQPGGSLRLSCAASGFTITNYGIHWVRQAPGKGLEWVGRIYPDSGATYYADSVKGRFTISADTSKNTAYLQMNSLRAEDTAVYYCARKLWVSLAPMDYWGQGTLVTVSS VL: DIQMTQSPSSLSASVGDRVTITCRASQDVSTAVAWYQQKPGKAPKLLIYSASFLYSGVPSRFSGSGSGTDFTLTISSLQPEDFATYYCQQSYGTPFIFGQGTKVEIKR | – | ~200 | – | – |
| YWO.49.H6-MC-vc-PAB-MMAE (antibody, V domains shown, MC-vc-PAB-MMAE conjugated to cysteine residues of the partially reduced antibody; average drug load 4.4 per antibody) VH: EVQLVESGGGLVQPGGSLRLSCAASGFTITNYGIHWVRQAPGKGLEWVGRIYPDSGATYYADSVKGRFTISADTSKNTAYLQMNSLRAEDTAVYYCARKLWISIAGMDYWGQGTLVTVSS VL: DIQMTQSPSSLSASVGDRVTITCRASQDVSTAVAWYQQKPGKAPKLLIYSASFLYSGVPSRFSGSGSGTDFTLTISSLQPEDFATYYCQHSYATPFTFGQGTKVEIKR | – | ~200 | – | – |
| YWO.49.H6 (antibody, V domains shown, also called YWO.H6) VH: EVQLVESGGGLVQPGGSLRLSCAASGFTITNYGIHWVRQAPGKGLEWVGRIYPDSGATYYADSVKGRFTISADTSKNTAYLQMNSLRAEDTAVYYCARKLWISIAGMDYWGQGTLVTVSS VL: DIQMTQSPSSLSASVGDRVTITCRASQDVSTAVAWYQQKPGKAPKLLIYSASFLYSGVPSRFSGSGSGTDFTLTISSLQPEDFATYYCQHSYATPFTFGQGTKVEIKR | – | – | 404 | 50 |
| YWO.49.H2 (antibody, V domains shown) VH: EVQLVESGGGLVQPGGSLRLSCAASGFTITNYGIHWVRQAPGKGLEWVGRIYPDSGATYYADSVKGRFTISADTSKNTAYLQMNSLRAEDTAVYYCARKLWVSLAPMDYWGQGTLVTVSS VL: DIQMTQSPSSLSASVGDRVTITCRASQDVSTAVAWYQQKPGKAPKLLIYSASFLYSGVPSRFSGSGSGTDFTLTISSLQPEDFATYYCQQSYGTPFIFGQGTKVEIKR | – | – | 348 | 230 |
| YWO.49 (antibody, V domains shown, detected with anti-human IgG; also called anti-TAT226 monoclonal antibody YWO.49) VH: EVQLVESGGGLVQPGGSLRLSCAASGFTITNYGIHWVRQAPGKGLEWVGRIYPDSGATYYADSVKGRFTISADTSKNTAYLQMNSLRAEDTAVYYCARKLWVSRAGMDYWGQGTLVTVSS VL: DIQMTQSPSSLSASVGDRVTITCRASQDVSTAVAWYQQKPGKAPKLLIYSASFLYSGVPSRFSGSGSGTDFTLTISSLQPEDFATYYCQQSYTTPPTFGQGTKVEIKR | – | – | – | 47200 |
| YWO.49.B7 (antibody, V domains shown) VH: EVQLVESGGGLVQPGGSLRLSCAASGFTITNYGIHWVRQAPGKGLEWVGRIYPDSGATYYADSVKGRFTISADTSKNTAYLQMNSLRAEDTAVYYCARKLWVSLAAMDYWGQGTLVTVSS VL: DIQMTQSPSSLSASVGDRVTITCRASQDVSTAVAWYQQKPGKAPKLLIYSASFLYSGVPSRFSGSGSGTDFTLTISSLQPEDFATYYCQRSVFTPPAFGQGTKVEIKR | – | – | – | < 180 |
| YWO.49.C9 (antibody, V domains shown) VH: EVQLVESGGGLVQPGGSLRLSCAASGFTITNYGIHWVRQAPGKGLEWVGRIYPDSGATYYADSVKGRFTISADTSKNTAYLQMNSLRAEDTAVYYCARKLWVTLASMDYWGQGTLVTVSS VL: DIQMTQSPSSLSASVGDRVTITCRASQDVSTAVAWYQQKPGKAPKLLIYSASFLYSGVPSRFSGSGSGTDFTLTISSLQPEDFATYYCQKSYNTPPTFGQGTKVEIKR | – | – | – | < 30 |
